Experimental data taken from article PMC11727070, “Structure of the WIPI3/ATG16L1 Complex Reveals the Molecular Basis for the Recruitment of the ATG12~ATG5-ATG16L1 Complex by WIPI3” (Cells, 2024).

B1: ATG16L1(78–197) (domain or fragment, human, UniProt Q676U5 78-197, looked up)
chain: NDNQLQEMAQLRIKHQEELTELHKKRGELAQLVIDLNNQMQRKDREMQMNEAKIAECLQTISDLETECLDLRTKLCDLERANQTLKDEYDALQITFTALEGKLRKTTEENQELVTRWMAE
notes: source: E. coli BL21 (DE3), purified (Ni-NTA, Superdex 200)
B2: ATG16L1(78–206) (domain or fragment, human, UniProt Q676U5 78-206, looked up)
chain: NDNQLQEMAQLRIKHQEELTELHKKRGELAQLVIDLNNQMQRKDREMQMNEAKIAECLQTISDLETECLDLRTKLCDLERANQTLKDEYDALQITFTALEGKLRKTTEENQELVTRWMAEKAQEANRLN
notes: Legends name it without Trx; source: E. coli BL21 (DE3), purified (Ni-NTA, Superdex 200)
B3: ATG16L1(124–188) (domain or fragment, human, UniProt Q676U5 124-188, looked up)
chain: MQMNEAKIAECLQTISDLETECLDLRTKLCDLERANQTLKDEYDALQITFTALEGKLRKTTEENQ
notes: Parallel coiled-coil dimer in the crystal; also called ATG16L1 coiled-coil; source: E. coli BL21 (DE3), purified (Ni-NTA, Superdex 200)
B4: ATG16L1(124–197) (domain or fragment, human, UniProt Q676U5 124-197, looked up)
chain: MQMNEAKIAECLQTISDLETECLDLRTKLCDLERANQTLKDEYDALQITFTALEGKLRKTTEENQELVTRWMAE
notes: as for B1
B5: ATG16L1(78–247) (domain or fragment, human, UniProt Q676U5 78-247, looked up)
chain: NDNQLQEMAQLRIKHQEELTELHKKRGELAQLVIDLNNQMQRKDREMQMNEAKIAECLQTISDLETECLDLRTKLCDLERANQTLKDEYDALQITFTALEGKLRKTTEENQELVTRWMAEKAQEANRLNAENEKDSRRRQARLQKELAEAAKEPLPVEQDDDIEVIVDET
notes: Legends name it without Trx (while ATG2A is named Trx-ATG2A), so the tag may have been cleaved; also called central region of ATG16L1; source: E. coli BL21 (DE3), purified (Ni-NTA, Superdex 200)

Biological target: T1, SUMO-tagged WIPI3^Δ (human WIPI3 residues 8–344 without residues 264–281) (human, UniProt Q5MNZ6 8-344, without residues 264–281)
T1 construct: WIPI3, human, residues 8–344 with residues 264–281 removed; the WIPI3(75–80) region is retained; also called SUMO-WIPI3^Δ; loop-truncated WIPI3; source: E. coli BL21 (DE3), purified (Ni-NTA, Superdex 200); not shown: SUMO, N-terminal, kept
Assay: SEC; purified proteins alone and mixed, Superdex 200 Increase 10/300 GL or Superdex 75 10/300 GL on an AKTA FPLC; mixture profile compared with the theoretical sum; fractions checked by SDS-PAGE
Conditions: both partners purified

T1 sequence (Q5MNZ6 other isoform, or with tags, fused parts or gaps without residues 264–281 | without residues 264–281 | mutant): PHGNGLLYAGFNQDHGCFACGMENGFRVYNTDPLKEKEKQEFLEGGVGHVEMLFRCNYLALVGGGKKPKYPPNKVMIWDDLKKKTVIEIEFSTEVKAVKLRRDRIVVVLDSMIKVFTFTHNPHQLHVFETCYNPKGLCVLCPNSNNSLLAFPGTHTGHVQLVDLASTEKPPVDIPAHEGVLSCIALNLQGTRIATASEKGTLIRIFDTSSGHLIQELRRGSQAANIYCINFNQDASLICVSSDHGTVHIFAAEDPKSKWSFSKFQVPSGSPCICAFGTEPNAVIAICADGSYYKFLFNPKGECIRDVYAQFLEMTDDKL

Binding result, binds:
B1
B2
B3
B4
B5

Biological target: T2, GST-tagged WIPI3Δ (human, UniProt Q5MNZ6 8-344, without residues 264–281)
T2 construct: WIPI3, human, residues 8–344 with residues 264–281 removed; also called GST-WIPI3Δ; source: E. coli BL21 (DE3), purified (Ni-NTA, Superdex 200); not shown: GST, N-terminal, kept
Assay: SEC; competition: a pre-formed complex incubated with an increasing molar ratio of the competitor, then SEC; fractions analysed by SDS-PAGE with Coomassie staining
Conditions: both partners purified

T2 sequence (Q5MNZ6 other isoform, or with tags, fused parts or gaps without residues 264–281 | without residues 264–281 | mutant): as above

Binding result, binds:
B2
